Experimental data published in paper PMC10030117 (eLife, 2023).

Columns and labels:
[1] = target: T1, SARS-2 spike (2P-stabilized ectodomain with foldon) (SARS-CoV-2 Wuhan-Hu-1, UniProt P0DTC2, K986 substituted with proline | V987 substituted with proline); assay: far-Western, overlay or dot blot; settings: both partners purified
[2] = target: T1, SARS-2 spike (2P-stabilized ectodomain …); assay: ELISA
SARS-2 HexaPro S2 [3] = target: T2, SARS-2 HexaPro S2 (SARS-CoV-2 Wuhan-Hu-1, HexaPro, proline substitution at position 817 | proline substitution at position 892 | …); assay: BLI + SPR; settings: both partners purified
SARS-2 HexaPro S2 [4] = target: T2, SARS-2 HexaPro S2; assay: cryo-EM structure; settings: both partners purified
[5] = target: SARS-2 4P-DS spike (4P with an additional stabilizing disulfide) (SARS-CoV-2 Wuhan-Hu-1, UniProt P0DTC2, disulfide bond between amino acids 965 and 1003 (965) | disulfide bond between …, disulfide bond between amino acids 965 and 1003; Alexa Fluor 647 label in the yeast display experiment); assay: SPR; settings: both partners purified
[6] = target: Authentic wild-type SARS-2 spike, full-length unstabilized, on the cell surface (Severe acute respiratory syndrome …, UniProt P0DTC2); assay: flow cytometry on cells; settings: one partner purified
SARS-2 HexaPro spike = SARS-2 HexaPro spike (SARS-CoV-2 Wuhan-Hu-1, HexaPro; T4 …, proline substitution at position 817 | proline substitution at position 892 | …); assay: BLI; settings: both partners purified

B1: Antibody 3E11, full-length (mouse variable region-human IgG1 constant region chimera) (antibody, V domains shown)
VH: EVQLQQSGTVLARPGASVKMSCKASGYSFTNYWVHWVKQRPGQGLEWIGAIYPGNGDTTYNQKFKDKAKLTAVTSTSSAYMDLSSLTSEDSAVYYCTRRANYGSRYDYWGQGTTLTVSS
VL: DIVMTQSTSSLSASLGDRVTISCRASQGINNYLNWYQQKPDGTVKLLIYHTSRLHSGVPSRFSGSGSGTDYSLTISNLEQEDIATYFCQQGDTLPYTFGGGTKLEIK
notes: IgG1
Question: Does B1 bind [1]?
Answer: binds

B2: 3E11 scFv displayed on M13 phage (scFv, V domains shown)
VH: EVQLQQSGTVLARPGASVKMSCKASGYSFTNYWVHWVKQRPGQGLEWIGAIYPGNGDTTYNQKFKDKAKLTAVTSTSSAYMDLSSLTSEDSAVYYCTRRANYGSRYDYWGQGTTLTVSS
VL: DIVMTQSTSSLSASLGDRVTISCRASQGINNYLNWYQQKPDGTVKLLIYHTSRLHSGVPSRFSGSGSGTDYSLTISNLEQEDIATYFCQQGDTLPYTFGGGTKLEIK
notes: VL-linker-VH order
Question: Does B2 bind ([2]; one partner purified)?
Answer: binds

B3: 3A3 Fab (Fab, V domains shown)
VH: QVQLQQSGAELLKPGASVKLSCTASGFNIKDTYIHWLKQRPEQGLEWIGRIGPAIGNTIYAPKFQGKATITTDTSSNTAYLQLSSLTSEDTAVYYCARYYGSSYYYFDYWGQGTTLTVSS
VL: DIVMTQSAPSVPVTPGESVSISCRSSKSLLHSNGNTYLYWFLQRPGQSPQLLIYRMSNLASGVPDRFSGSGSGTAFTLRISRVEAEDVGVYYCMQYLEYPLTFGAGTKLELK
Question: Which Kd (SARS-2 HexaPro S2 [3]) does the source give for B3 here?
Answer: ~0.003 µM

Question: What about the “stoichiometry N” value (SARS-2 HexaPro S2 [4]) of the same binder?
Answer: 1 Fab per S2 protomer

B4: RAY53 Fab (Fab, V domains shown)
VH: QVQLVQSGAVVLKPGASVKLSCKASGFNIKNTYIHWLKQAPGQRLEWIGRIGPAIGNTIYAPKFQGKATITTDTSASTAYLELSSLRSEDTAVYYCARYYGSSYYYLDYWGQGTTVTVSS
VL: DIVMTQSPLSVPVTPGEPVSISCRSSKSLLHSNGNTYLYWFLQKPGQSPQLLIARMSTLASGVPDRFSGSGSGTAFTLKISRVEAEDVGVYYCMQYLEYPLTFGAGTKLEIK
Question: How did the Kd [5] turn out when B4 was run?
Answer: 1.3 ± 0.2 µM

B5: Antibody RAY53, full-length human IgG1 (antibody, V domains shown)
VH: QVQLVQSGAVVLKPGASVKLSCKASGFNIKNTYIHWLKQAPGQRLEWIGRIGPAIGNTIYAPKFQGKATITTDTSASTAYLELSSLRSEDTAVYYCARYYGSSYYYLDYWGQGTTVTVSS
VL: DIVMTQSPLSVPVTPGEPVSISCRSSKSLLHSNGNTYLYWFLQKPGQSPQLLIARMSTLASGVPDRFSGSGSGTAFTLKISRVEAEDVGVYYCMQYLEYPLTFGAGTKLEIK
Question: With B5 as the binder, how does the Kd [6] read?
Answer: 0.1 ± 0.02 µM

Question: Does B5 bind ([2]; both partners purified)?
Answer: binds

Question: What about the Kd [5] of the same binder?
Answer: 0.1 ± 0.016 µM

B6: Antibody 3A3, full-length (mouse variable region-human IgG1 constant region chimera) (antibody, V domains shown)
VH: QVQLQQSGAELLKPGASVKLSCTASGFNIKDTYIHWLKQRPEQGLEWIGRIGPAIGNTIYAPKFQGKATITTDTSSNTAYLQLSSLTSEDTAVYYCARYYGSSYYYFDYWGQGTTLTVSS
VL: DIVMTQSAPSVPVTPGESVSISCRSSKSLLHSNGNTYLYWFLQRPGQSPQLLIYRMSNLASGVPDRFSGSGSGTAFTLRISRVEAEDVGVYYCMQYLEYPLTFGAGTKLELK
Question: Does B6 bind [6]?
Answer: no binding (tested: ~1–300 nM)

Question: What about the “fold worse ELISA EC50 (stressed against fresh)” value ([2]; both partners purified) of the same binder?
Answer: ~150 fold

Question: And the kon (SARS-2 HexaPro spike)?
Answer: 800000 ± 100000 M⁻¹ s⁻¹
